Source: article PMC4075976 (Nature structural & molecular biology, 2008)
Where no end group is shown, it is not given here.

B1: GST-Pirh2 NTD (domain or fragment, human, UniProt Q96PM5 1-137, looked up)
chain: MAATAREDGASGQERGQRGCEHYDRGCLLKAPCCDKLYTCRLCHDNNEDHQLDRFKVKEVQCINCEKIQHAQQTCEECSTLFGEYYCDICHLFDKDKKQYHCENCGICRIGPKEDFFHCLKCNLCLAMNLQGRHKCI
B2: Pirh2 RING domain (GST removed) (domain or fragment)
chain: ENVSRQNCPICLEDIHTSRVVAHVLPCGHLLHRTCYEEMLKEGYRCPLCMHS
modifications: cysteine pairing not given here; also: 2 Zn ions bound

Tests used:
[1] = target: full length 6xHis tagged p53 (human, UniProt P04637 1-393); test: pull-down
[2] = target: UBE2D2/UbcH5b (UniProt P62837 1-147); test: NMR titration

full length 6xHis tagged p53, sequence (P04637 whole entry): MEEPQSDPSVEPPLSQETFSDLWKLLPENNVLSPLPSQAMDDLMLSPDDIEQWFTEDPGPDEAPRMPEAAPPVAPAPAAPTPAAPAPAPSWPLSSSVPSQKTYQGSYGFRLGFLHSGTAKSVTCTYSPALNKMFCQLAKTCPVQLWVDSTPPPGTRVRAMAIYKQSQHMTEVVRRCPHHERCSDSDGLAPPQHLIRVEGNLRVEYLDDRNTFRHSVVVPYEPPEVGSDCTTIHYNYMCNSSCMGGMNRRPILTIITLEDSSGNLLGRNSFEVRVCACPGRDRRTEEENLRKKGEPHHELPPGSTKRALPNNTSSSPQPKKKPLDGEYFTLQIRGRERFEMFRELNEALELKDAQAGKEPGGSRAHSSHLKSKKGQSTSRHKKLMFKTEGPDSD

Row | Binder | binding result [1] | Kd [2]
1 | B1 | binds | –
2 | B2 | – | ~200 µM
